Data: US20250270269A1 (YUHAN, published 2025)

B1: DFD59: GLP1(GEG)-HyFc40 (Fc fusion)
chain: HGEGTFTSDVSSYLEEQAAKEFIAWLVKGGGEKEKEEQEERETKTPECPSHTQPLGVFLFPPKPKDTLMISRTPEVTCVVVDVSQEDPEVQFNWYVDGVEVHNAKTKPREEQFNSTYRVVSVLTVLHQDWLNGKEYKCKVSNKGLPSSIEKTISKAKGQPREPQVYTLPPSQEEMTKNQVSLTCLVKGFYPSDIAVEWESNGQPENNYKTTPPVLDSDGSFFLYSRLTVDKSRWQEGNVFSCSVMHEALHNHYTQKSLSLSLGK
B2: DFD23 (Fc fusion)
chain: HGEGTFTSDVSSYLEGQAAKEFIAWLVKGRGEKEKEEQEERETKTPECPSHTQPLGVFLFPPKPKDTLMISRTPEVTCVVVDVSQEDPEVQFNWYVDGVEVHNAKTKPREEQFNSTYRVVSVLTVLHQDWLNGKEYKCKVSNKGLPSSIEKTISKAKGQPREPQVYTLPPSQEEMTKNQVSLTCLVKGFYPSDIAVEWESNGQPENNYKTTPPVLDSDGSFFLYSRLTVDKSRWQEGNVFSCSVMHEALHNHYTQKSLSLSLGKGGGGSGGGGSGGGGSHPIPDSSPLLQFGGQVRQRYLYTDDAQQTEAHLEIREDGTVGGAADQSPESLLQLKALKPGVIQILGVKTSRFLCQRPDGALYGSLHFDPEACSFREEIRPDGYNVYQSEAHGLPLHLPGNKSPHRDPAPRGPARFLPLPGLPPALPEPPGILAPQPPDVGSSDPLSMVTGLEAVRSPSYAS

Target: human GLP-1 receptor (human, UniProt P43220 24-463)
Assay: cell-based or functional assay

Row | Binder | in vitro GLP-1 activity (intracellular cAMP, EC50 compared)
1 | B1 | ~2 times higher activity than the dual function proteins DFD69, DFD112 and DFD114
2 | B2 | 2 to 3 times lower activity than the dual function proteins with other GLP-1 mutant sequences
